Experimental data taken from article doi:10.1101/2025.11.23.690026, “A systematic interactome of SET1C expands its functional landscape and identifies candidate regulatory connections” (bioRxiv, 2025).

Biological target: T1, reconstituted SET1C (S. cerevisiae, UniProt P38827 1-1080; P39706 1-426; P36104 1-329; P38123 1-315; P43132 1-505; Q03323 …)
T1 construct: Set1, S. cerevisiae (FLAG-Set1); Swd1, untagged subunit; Swd2, untagged subunit; Swd3, untagged subunit; Bre2, untagged subunit; Sdc1, untagged subunit; Spp1, untagged subunit; Shg1, untagged subunit; also called full-length SET1C; purified SET1C; source: Sf9, coinfected with baculoviruses, purified (M2 agarose); copies: + + + + + + +
Test: pull-down; GST-tagged Snf2 fragments (250 nM) with SET1C or C762SET1C (25 nM) on glutathione-Sepharose 4B, 0.2 mg/ml BSA, 20 mM Tris-Cl pH 7.9, 150 mM NaCl, 0.1% NP-40, 4 C, 3 hours; immunoblot
Settings: both partners purified

- binding result: binds
B1: GST-Snf2C-AT-hook (domain or fragment, S. cerevisiae, UniProt P22082 1384-1547, looked up)
chain: ARKQRTKKEDKSEAIDGNGEIKGENIDADNDGPRINNISAEDRADTDLAMNDDDFLSKKRKAGRPRGRPKKVKLEGSENSEPPALESSPVTGDNSPSEDFMDIPKPRTAGKTSVKSARTSTRGRGRGRGRGRGRGRGRGRPPKARNGLDYVRTPAAATSPIDIR
notes: Snf2, S. cerevisiae, AT-hook region 1384-1547; also called Snf2-AT-hook; GST-Snf2-AT-hook; source: recombinant, purified GST fusion (E. coli BL21 by the general methods)
